Assay results reported in patent publication US20140271661A1 (Bayer, published 2014).
Residue numbers refer to the chain shown, from its start. One block for each binder: values may come before it.

What was measured:
[1] = target: rabbit antithrombin β complexed with heparin (rATβH) (rabbit); test: cell-based or functional assay
[2] = target: T1, human antithrombin β complexed with heparin (human ATβH) (human, UniProt P01008 33-464, lacks glycosylation at Asn135 (β glyco-isoform); complexed with heparin); test: cell-based or functional assay
T1 sequence (P01008 33-464, one chain of several): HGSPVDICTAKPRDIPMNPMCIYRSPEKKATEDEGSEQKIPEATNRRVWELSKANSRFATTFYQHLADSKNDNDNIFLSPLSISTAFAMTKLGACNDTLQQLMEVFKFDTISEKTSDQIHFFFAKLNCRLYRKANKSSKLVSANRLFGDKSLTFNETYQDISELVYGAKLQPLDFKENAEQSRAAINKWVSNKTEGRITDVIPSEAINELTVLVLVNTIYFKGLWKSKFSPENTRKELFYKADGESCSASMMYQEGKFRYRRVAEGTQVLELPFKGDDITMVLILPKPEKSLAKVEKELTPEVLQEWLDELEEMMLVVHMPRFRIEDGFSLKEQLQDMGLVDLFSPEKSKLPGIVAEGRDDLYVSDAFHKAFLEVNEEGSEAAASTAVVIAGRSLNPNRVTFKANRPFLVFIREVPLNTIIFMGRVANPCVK

[3] = target: cynomolgus antithrombin (ATβH species homolog, in Cyno plasma) (Cyno); test: cell-based or functional assay
[4] = target: T1, human antithrombin β complexed with …; test: panning and screening of human antibody libraries against human ATβ in complex with heparin

B1: TPP2009 hIgG1 (antibody, V domains shown)
VH: EVQLLESGGGLVQPGGSLRLSCAASGFTFSAYRMGWVRQAPGKGLEWVSRIYSSGGRTRYADSVKGRFTISRDNSKNTLYLQMNSLRAEDTAVYYCAREKASDLSGSFSEALDYWGQGTLVTVSS
VL: AQSVLTQDPAVSVALGQTVRITCQGDSLRSYYASWYQQKPGQAPVLVIYGKNNRPSGIPDRFSGSSSGNTASLTITGAQAEDEADYYCNSRDSSGNHLVFGGGTKLTVLG
EC50, FXa-Activated Clotting Assay, rabbit HEM A plasma [1]: 10.5 nM | EC50, FXa-Activated Clotting Assay, rabbit normal plasma [1]: 25.7 nM | EC50, FXa-Activated Clotting Assay, human HEM A plasma [2]: 4.7 nM | EC50, FXa-Activated Clotting Assay, human normal plasma [2]: 10.5 nM | EC50, dPT (diluted prothrombin time), human HEM A plasma [2]: 9 nM | EC50, FXa-Activated Clotting Assay, cyno HEM A plasma [3]: 4.3 nM | EC50, FXa-Activated Clotting Assay, cyno normal plasma [3]: 21.5 nM | EC50, dPT (diluted prothrombin time), cyno HEM A plasma [3]: 13.9 nM

B3: TPP2803 IgG2, Germlined and converted to IgG2 (antibody, V domains shown)
VH: B1 VH with A31S, G35S
VL: SSELTQDPAVSVALGQTVRITCQGDSLRSYYASWYQQKPGQAPVLVIYGKNNRPSGIPDRFSGSSSGNTASLTITGAQAEDEADYYCNSRDSSGNHLVFGGGTKLTVLG
EC50, FXa-Activated Clotting Assay, human HEM A plasma [2]: 2.7 nM | EC50, FXa-Activated Clotting Assay, human normal plasma [2]: 2.4 nM

Next, values leading:

binding result [4]: binds
B2: TPP-2016 hIgG (antibody, V domains shown)
VH: B1 VH with A31K, G35D, Y52G, S53P, R57K, R59T, A101T, F108Y
VL: DIQMTQSPATLSVSPGERATLSCRASQNINRNLAWYQQKPGRAPRLLIHTASTRAPGVPVRITGSGSGTEFTLTISSLEPEDFAVYFCQQYASPPRTFGQGTKVEIKR

binding result [4]: binds
B4: TPP-2019 hIgG (antibody, V domains shown)
VH: EVQLLESGGGLVQPGGSLRLSCAASGFTFSRYAMYWVRQAPGKGLEWVSRISPSGGKTHYADSVKGRFTISRDNSKNTLYLQMNSLRAEDTAVYYCARLSQTGYYPHYHYYGMDVWGQGTTVTVSS
VL: DIQMTQSPATLSLSPGERATLSCRASQRVSSSYLTWYQQKPGQAPRLLIYGASSRATGIPDRFSGSGSGTDFTLTISRLEPEDFAVYYCQQYDSTPPLTFGGGTKVEIKR
